Results published in patent publication US10465005B2, “JAML specific binding agents, antibodies, and uses related thereto” (Emory University, priority 2011, dated 2019).
Entries after “also recorded” stand apart in the source; their conditions may differ.

B1: DW100: monoclonal anti-human JAML antibody (IgG1,κ), hybridoma ATCC PTA-13051; VH SEQ ID NO:19, VL SEQ ID NO:22 (antibody, V domains shown)
VH: DVQLVESGAELVRPGASKLSCKALAYTFTDYEMHWVKQTPVHGLEWIGIIHPGSGGTVYNQKFKGKATLTADKSSSTAYMELSSLTSEDSTVYYCTRRRYYGSSYNWYFDVWGAGN
VL: VLTQSPASLAASVGETVTITCRASENIYYSLAWYQQKQGKSPQLLIYNANSLEDGVPSRFSGSGSGTQYSLKINSMQPEDTATYFCEQTYDVPLTFGAGTKLEL
B2: sJAML: recombinant soluble fragment of JAML.D1D2 tagged with 10 His residues at the C-terminus (protein)
chain: LNDLNVSPPELTVHVGDSALMGCVFQSTEDKCIFKIDWTLSPGEHAKDEYVLYYYSNLSVPIGRFQNRVHLMGDILCNDGSLLLQDVQEADQGTYICEIRLKGESQVFKKAVVLHVLPEEPKELMVHVGGLIQMGCVFQSTEVKHVTKVEWIFSGRRAKEEIVFRYYHKLRMSVEYSQSWGHFQNRVNLVGDIFRNDGSIMLQGVRESDGGNYTCSIHLGNLVFKKTIVLHVSPEEPRTL

Columns and labels:
[1] = test system: CHO-JAML and CHO-CAR cells; assay: CHO-JAML / CHO-CAR cell aggregation assay; format: cell-based; settings: for aggregation of mixed CHO-CAR and CHO-JAML cultures (number and size of clusters): antibodies 30 μg/ml, 1 hour at 37° C., FIG. 1D
Procedure: FIG. 1D. CHO-K1 cells stably transfected with either JAML (CHO-JAML) or CAR (CHO-CAR) proteins were allowed to aggregate (1 hour at 37° C. on a shaker at 50 RPM) separately (1×10^6 cells/BSA coated 3 ml Petri dish), or as a mix (5×10^5 each cell type/dish), in the absence or presence of anti-JAML monoclonal antibodies DW100, DW55 and DW216 (30 μg/ml). The number of clusters (left) and the area of the clusters (right) were quantified in 7 randomly chosen fields using light microscopy. The results are representative of four independent experiments. CHO-CAR and CHO-JAML in mixed cultures formed large aggregates.
Because certain antibodies recognize the membrane distal domain of JAML, their ability to inhibit binding to CAR was tested. By ELISA, the levels of soluble CAR-GST bound to immobilized sJAML-His preincubated with anti JAML antibodies was measured. […] Thus, these antibodies recognize three different epitopes on JAML and that both DW100 and DW55 bind epitopes close to the JAML binding site. Using a cell aggregation assay, the possibility that DW100 could inhibit the binding of JAML to CAR expressed on the surface of cells was examined. […] This again confirms previously described JAML binding to CAR, as well as the specificity of DW100 (blocking) and DW216 (non-blocking) Abs to JAML.

T84 and CACO-2 cells = assay: Cell adhesion assay, PMN and HL60 to epithelial monolayers; format: cell-based, human; settings: sJAML-His and mAbs 30 μg/ml, 1 hour
Procedure: PMN cells were pre-labeled with CellTracker™ Green (CMFDA). Labeled cells (2.5×10^5/well) were allowed to adhere for 1 hour to T84 (white bars) and CACO-2 (black bars) cells grown to confluency in 24 well tissue culture microtiter wells, in the absence (NoTx) or presence of soluble JAML (sJAML-His), 30 μg/ml), anti-JAML monoclonal antibodies DW100 and DW216 (30 μg/ml), or alternatively to stable CACO-2 cells lacking CAR. Non-adherent HL60 cells and PMN were removed by 3 washes with HBSS. Adherent cells were harvested by treating the monolayers with trypsin, followed by lysis with 0.1% Triton 100×. Fluorescence intensity was measured using FluoStar Galaxy plate reader at excitation/emission wavelengths of 485/535 nm.
JAML-CAR interactions are involved in PMN adhesion to epithelium. […] Indeed adhesion of both HL-60 cells and PMNs to epithelium is partly dependent upon JAML-CAR binding. […] HL-60 cells and PMNs also adhered to a lesser degree to Caco2 cells where the expression of CAR was stably knocked down, confirming the specificity of the adhesion events to JAML-CAR interactions.
Epithelial cells (T84/Caco-2) were seeded on 24-well plates (10^6 cells/well) and cultured until they reached confluence. […] Fluorescence intensity was measured using FluoStar Galaxy plate reader at excitation/emission wavelengths of 485/535 nm. […]

[2] = test system: T84 epithelial monolayers; assay: Scratch wound closure of epithelial monolayers; format: cell-based, human; settings: for epithelial wound closure: T84 scratch wound, monitored over 72 h, FIG. 10
Procedure: T84 epithelial monolayers grown to confluence were wounded by introduction of a single linear scratch wound using a 20-μl plastic pipette tip. Wound closure was monitored over 72 h in the absence or presence of PMN or sJAML. The scale bar is 10 μm.
Whether JAML binding to CAR would affect epithelial wound restitution was investigated. […] If soluble JAML interactions with CAR play a role, the effect could be reversed with the addition of blocking DW100 mAb.
Cell grown in 24-well tissue culture plates received one linear wound using a 20-μl plastic pipette tip attached to low suction. Wounded monolayers were washed once with PBS to remove detached cells and debris, and incubated with the appropriate stimulus added to the medium. The rate of migration was measured by determining the wound area immediately after wounding (t=0) and at the indicated time points. The data are presented as the area of the wound at each time point normalized to t=0. The experiments were carried out in triplicates per condition, and the data shown are representative of 4 independent experiments.

[3] = test system: T84 intestinal epithelial cells; assay: EdU incorporation cell proliferation at wound edge; format: cell-based, human; settings: FIG. 10C,D
Procedure: FIG. 10C. Epithelial monolayers were wounded as described above and cell proliferation at the wound edge after 24 hours incubation with either sJAML or sSIRPa (30 μg/ml), with or without the addition of DW100 mAb was assessed by EdU incorporation assay. Data presented as proliferating cells (positively stained with EdU) out of all cells in the field multiplied by 100. Cells were counted in 7 randomly selected fields in 4 independent experiments.
JAML binding CAR to inhibit epithelial cell proliferation was investigated as a possible mechanism for impeding wound healing.
Cell proliferation was assessed in […] (EdU) incorporation assay, by using a Click-iT EdU Alexa 488 cell proliferation kit (Invitrogen). Cell apoptosis was assessed by staining with sulforhodamine labeled caspase inhibitor SR-VAD-FMK from APO LOGIX
Sulforhodamine Caspase Detection kit (Cell Technology). Scratch wounded or confluent cells were subjected to treatment as indicated in the figure were incubated for 24 hrs at 370 C before addition of EdU or APO LOGIX Sulforhodamine Caspase Detection kits. At least 5 random fields per each condition were analyzed, the data are presented as % proliferating/apoptotic cells out of total cells in the field.

T84 monolayers = assay: Epithelial barrier recovery after calcium switch (TER, dextran flux); format: cell-based, human; settings: for epithelial barrier recovery (TER) after calcium depletion: 30 μg/ml, 20 m/ml, up to 24 hours, FIG. 9A
Procedure: T84 monolayers grown on permeable supports were subjected to transient calcium depletion by preincubation in Ca2+ free buffer (PBS) for 40 min to disassemble tight junctions, followed by switching back to calcium containing medium without (No Tx), or with sJAML or a control recombinant IgSF protein sSIRPa (30 μg/ml). Barrier recovery was measured as transepithelial resistance (TER) at time points as indicated.
FIG. 9B. Flux of fluorescently labeled dextran (3 k) was measured at the 24 h time point for conditions as described in panel A. N=4.
Since CAR plays a role in epithelial barrier, the effect of soluble JAML on epithelial barrier recovery was tested. Transepithelial resistance (TER) recovery experiments and dextran flux assay were performed with T84 cells grown in transwells (FIG. 9) as well as with Caco2 cells. […] As a negative control, a related soluble IgSF molecule SIRPalpha had no effect.

Molecule	aggregation of CHO-JAML cells alone (JAML-JAML) ([1]; FIG. 1)	aggregation of mixed CHO-CAR and CHO-JAML cultures (number and size of clusters) [1]	adhesion of HL60 cells and PMN to epithelial monolayer (T84 and CACO-2 cells; FIG. 8)	reversal of PMN or sJAML inhibition of wound closure ([2]; T84, mAb 30 μg/ml, FIG. 10A,B)	block of soluble JAML inhibition of proliferation ([3]; EdU)	adhesion of HL60 cells and PMN to epithelial monolayer (T84 and CACO-2 cells; FIG. 8, listed as soluble JAML)	epithelial barrier recovery (TER) after calcium depletion (T84 monolayers; listed as Soluble JAML)	epithelial barrier recovery (TER) after calcium depletion (T84 monolayers; listed as soluble JAML)	flux of fluorescently labeled dextran (3 k) (T84 monolayers; 24 h time point, FIG. 9B)	epithelial wound closure [2]	epithelial wound closure ([2]; listed as Soluble JAML)	proliferation of epithelial cells at wound edge (EdU) ([3]; 30 μg/ml, 24 hours)
B1	could not be blocked with DW100 mAb	could be blocked with DW100; also recorded: significantly inhibited aggregation of mixed cultures of CHO transfectants; also recorded: significantly decreased both the size and the number of formed clusters	decreased adhesion of HL60 cells and PMN to epithelial monolayer; also recorded: significantly decreased	reversed this inhibition; also recorded: significantly improved wound restitution	blocked by addition of DW100	–	–	–	–	–	–	–
B2	–	blocked	–	–	–	decreased adhesion of HL60 cells and PMN to epithelial monolayer; also recorded: significantly decreased	decreased epithelial barrier recovery; also recorded: delayed both epithelial barrier recovery and wound restitution	significantly impaired the recovery of epithelial barrier	increased dextran flux	inhibited wound closure	delayed both epithelial barrier recovery and wound restitution	significantly inhibits proliferation of T84 intestinal epithelial cells
